The source of these data is publication PMC3076715.

Holding throughout (test): fluorescence polarization
The target of series [1] is T1, Dnmt3a-CD (murine, UniProt O88508 608-908).
Series [2] deals with T1, Dnmt3a-CD. The source holds these as a separate data set.
Another series concerns the target M.SssI (UniProt P15840 1-386).
The target of series [3] is T1, Dnmt3a-CD. The source holds these as a separate data set.

Where two headings read alike, the source gives them in different places.

T1 sequence (O88508 608-908): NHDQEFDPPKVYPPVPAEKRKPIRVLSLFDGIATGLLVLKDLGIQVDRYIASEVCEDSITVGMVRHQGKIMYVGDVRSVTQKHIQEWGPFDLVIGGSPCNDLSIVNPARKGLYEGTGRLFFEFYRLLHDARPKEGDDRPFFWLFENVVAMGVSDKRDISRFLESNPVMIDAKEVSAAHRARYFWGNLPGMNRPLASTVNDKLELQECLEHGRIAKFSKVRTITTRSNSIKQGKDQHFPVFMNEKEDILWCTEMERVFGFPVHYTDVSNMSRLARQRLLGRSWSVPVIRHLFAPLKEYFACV
M.SssI, sequence (P15840 whole entry): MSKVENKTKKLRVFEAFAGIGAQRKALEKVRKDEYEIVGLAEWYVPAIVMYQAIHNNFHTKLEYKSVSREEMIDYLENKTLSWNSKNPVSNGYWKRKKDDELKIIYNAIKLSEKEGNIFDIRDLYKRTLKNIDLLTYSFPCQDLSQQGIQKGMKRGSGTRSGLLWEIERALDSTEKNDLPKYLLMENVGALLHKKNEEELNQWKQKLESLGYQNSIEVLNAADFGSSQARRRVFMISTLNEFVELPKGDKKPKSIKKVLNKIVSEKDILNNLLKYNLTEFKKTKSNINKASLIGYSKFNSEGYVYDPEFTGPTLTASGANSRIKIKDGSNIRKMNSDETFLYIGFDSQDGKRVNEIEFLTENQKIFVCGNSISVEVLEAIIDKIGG

B1: GCB+C/CGCG (dsDNA)
DNA 1: GAGCCAAGCGCACTCTGA
DNA 2: TCAGAGTGCGCTTGGCTC
modifications: (+)-trans-anti-B[a]PDE-N2-dG at strand 1 position 10
B1: the binding result with Dnmt3a-CD [1] was “binds”.

B2: GCGC/CGMG (dsDNA)
DNA 1: GAGCCAAGCGCACTCTGA
DNA 2: TCAGAGTGCGCTTGGCTC
modifications: 5-methylcytosine at strand 2 position 9
On to B2, for which, in the series with Dnmt3a-CD [2], the binding result is “binds”.

B3: GCGC/CGCG (dsDNA)
DNA 1: GAGCCAAGCGCACTCTGA
DNA 2: TCAGAGTGCGCTTGGCTC
Regarding B3, the binding result with M.SssI and in the series with Dnmt3a-CD [3] was “binds” each time.
